Target: T1, N-HvGR-RBP1 (RRM domain) (Hordeum vulgare L., UniProt J7FTI7 1-92)
T1 sequence: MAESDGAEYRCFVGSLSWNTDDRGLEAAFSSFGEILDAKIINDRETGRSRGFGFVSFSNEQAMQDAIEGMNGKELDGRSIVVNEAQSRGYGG
Experiment: NMR

Binder: TTCTGA (ssDNA) [TTCTGA 6-mer]
- binding result: binds

Binder: TTCTGT (ssDNA) [TTCTGT 6-mer]
- binding result: binds

Source: article PMC4278681
